The text below walks through data of patent publication US20150031864A1.

For the assay, the target named is human growth hormone receptor on IM-9 cells (human) (UniProt P10912). Description: cell-based or functional assay.

Where only a bound is given, the exact number is not on record here.

Sequence of UniProt P10912 (P10912 19-638): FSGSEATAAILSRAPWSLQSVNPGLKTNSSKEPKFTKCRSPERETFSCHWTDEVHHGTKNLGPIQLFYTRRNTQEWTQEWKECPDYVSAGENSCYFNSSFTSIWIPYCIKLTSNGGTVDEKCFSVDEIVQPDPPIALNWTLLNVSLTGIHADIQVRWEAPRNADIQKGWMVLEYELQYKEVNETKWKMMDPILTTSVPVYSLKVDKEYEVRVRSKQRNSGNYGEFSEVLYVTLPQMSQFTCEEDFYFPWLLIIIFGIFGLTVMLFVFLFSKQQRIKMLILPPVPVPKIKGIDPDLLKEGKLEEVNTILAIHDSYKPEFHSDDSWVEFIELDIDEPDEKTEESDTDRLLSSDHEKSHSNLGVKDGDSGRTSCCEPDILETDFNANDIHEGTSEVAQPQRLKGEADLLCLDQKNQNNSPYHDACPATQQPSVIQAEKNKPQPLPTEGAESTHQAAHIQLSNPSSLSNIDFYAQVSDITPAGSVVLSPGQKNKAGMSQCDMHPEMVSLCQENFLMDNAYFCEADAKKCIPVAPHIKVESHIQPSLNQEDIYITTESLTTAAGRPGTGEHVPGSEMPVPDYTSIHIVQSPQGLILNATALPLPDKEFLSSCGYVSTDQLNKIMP

“N-6His N99pAF hGH (from UniProt P01241 27-217) (ligand)” registered an EC50 (nM) of STAT5 phosphorylation in IM-9 cells of 8.5 nM.

The substance “N-6His A155pAF hGH (from UniProt P01241 27-217) (ligand)” gave an EC50 (nM) of STAT5 phosphorylation in IM-9 cells of 1.3 nM.

For “N-6His P133pAF hGH (from UniProt P01241 27-217) (ligand)”, the EC50 (nM) of STAT5 phosphorylation in IM-9 cells came to 1 nM.

As for “N-6His Y111pAF hGH (from UniProt P01241 27-217) (ligand)”, the EC50 (nM) of STAT5 phosphorylation in IM-9 cells was found to be 1 nM.

For the substance “N-6His F139pAF hGH (from UniProt P01241 27-217) (ligand)”, the EC50 (nM) of STAT5 phosphorylation in IM-9 cells worked out at 3.3 nM.

For the substance “N-6His S95pAF hGH (from UniProt P01241 27-217) (ligand)”, the EC50 (nM) of STAT5 phosphorylation in IM-9 cells turned out to be 16.7 nM.

In turn, “N-6His K140pAF hGH (from UniProt P01241 27-217) (ligand)” gave an EC50 (nM) of STAT5 phosphorylation in IM-9 cells of 2.7 nM.

As to “N-6His Y143pAF hGH (from UniProt P01241 27-217) (ligand)”, the EC50 (nM) of STAT5 phosphorylation in IM-9 cells was 0.8 nM.

With “N-6His R134pAF hGH (from UniProt P01241 27-217) (ligand)”, the EC50 (nM) of STAT5 phosphorylation in IM-9 cells was 0.9 nM.

Take “N-6His Y103pAF hGH (from UniProt P01241 27-217) (ligand)”: the EC50 (nM) of STAT5 phosphorylation in IM-9 cells turned out to be 130000 nM.

Regarding “N-6His T135pAF hGH (from UniProt P01241 27-217) (ligand)”, the EC50 (nM) of STAT5 phosphorylation in IM-9 cells is 0.9 nM.

In the case of “N-6His F92pAF hGH (from UniProt P01241 27-217) (ligand)”, the EC50 (nM) of STAT5 phosphorylation in IM-9 cells was found to be 0.8 nM.

In turn, “N-6His E88pAF hGH (from UniProt P01241 27-217) (ligand)” showed an EC50 (nM) of STAT5 phosphorylation in IM-9 cells of 0.9 nM.

For the substance “N-6His G131pAF hGH (from UniProt P01241 27-217) (ligand)”, the EC50 (nM) of STAT5 phosphorylation in IM-9 cells was 0.8 nM.

In turn, “N-6His G136pAF hGH (from UniProt P01241 27-217) (ligand)” yielded an EC50 (nM) of STAT5 phosphorylation in IM-9 cells of 1.4 nM.

Substance “N-6His Q91pAF hGH (from UniProt P01241 27-217) (ligand)” gave an EC50 (nM) of STAT5 phosphorylation in IM-9 cells of 2 nM.

In turn, “rat GH WT (from UniProt P01244 27-216) (ligand)” displayed an EC50 (nM) of STAT5 phosphorylation in IM-9 cells of over 200000 nM.
